Assay results published in patent US20100137208A1, “INTRATUMORALLY ADMINISTERED LACTOFERRIN IN THE TREATMENT OF MALIGNANTNEOPLASMS AND OTHER HYPERPROLIFERATIVE DISEASES” (priority 2002, published 2010).
Several values for one entry are separate records, joined by “and”; a condition that tells them apart may be missing. Identical values can stand only once. Marks after values point to notes of the source that are not given here.

How the values were obtained:
[1] = system: Human squamous cell carcinoma (O12); experiment: Inhibition of tumor growth by rhLF in O12 tumor model in mice; assay type: in vivo, athymic nude mice
Description: Human squamous cell carcinoma (O12) was used. The cells were injected into the right flank of athymic nude mice. rhLF was administered either intratumorally (49 animals, 7 doses ranging from 0.05 μg to 125 μg per dose), intravenously (7 animals, 125 μg/dose) or orally (7 animals 20 mg/dose). Control animals were treated with only the vehicle; no rhLF was administered to the control animals. rhLF was administered twice a day for either five days (intravenous group) or eight days (all other groups) starting 11 days after inoculation with tumor cells to allow formation of established tumors.
The efficacy of treatment was evaluated by measuring the solid tumor size during and at the end of the experiment; the body weights were also determined at the time of tumor measurements.

[2] = system: YAC targets; experiment: NK activity ex vivo after oral rhLF (LDH release test); assay type: in vivo, Balb/c naïve mice; settings: for % Cytotoxicity Final (NK activity): oral 300 mg/kg/day 3 days, spleen NK cells day 4
Description: Balb/c naïve mice were treated orally with rhLF or placebo once a day for 3 days (see Table 4).
(§1) On day 4, mice were sacrificed and spleens were collected. NK cells were separated using a magnetic bead cell sorting assay (MACS anti-NK-DX5) and counted. Cells were then tested in vitro for NK-activity against YAC targets using a lactate dehydrogenase (LDH) release test.
as §1, with “Balb/c naïve mice were treated orally with rhLF or placebo once a” for “On”, “for 3 days. One day later (day 4),” for “4,”, “spleens” for “spleens were”

[3] = system: GM-CSF; experiment: GM-CSF production in small intestine after oral rhLF (ELISA); assay type: in vivo, mice; settings: oral 300 mg/kg/day for three days
Description: Recombinant human lactoferrin or placebo were orally administered to mice, and the production of GM-CSF in the small intestine was measured.
Mice (5 animals per group) were treated for three days daily with 300 mg/kg/day of rhLF. For a control, mice were only administered the pharmaceutical carrier. Twenty-four hours following administration of the LF or placebo for 3 days, animals were and the small intestinal tissue was removed for further analysis. Small intestinal epithelium was homogenized using a lysis buffer consisting of PBS, 1% Nonidet P-40, 0.5% sodium deoxycholate, and 0.1% sodium dodecyl sulphate containing 10 μg/ml PhenylMetheylsulfonyl fluoride. Homogenate was centrifuged at 15,000 rpm for 10 minutes and the supernatant stored at −80 C till it was tested for GM-CSF levels using an ELISA kit.

[4] = system: murine squamous carcinoma cell line (SCCVII); experiment: SCCVII floor-of-mouth tumor growth, oral rhLF and/or cisplatin; assay type: in vivo, C3H mice; settings: rhLF 200 mg/Kg oral once daily days 5-12, no cisplatin
Description: A murine squamous carcinoma cell line (SCCVII) was injected into the floor of the mouth through the neck skin of immunocompetent C3H mice (Day 0). […] Tumors were measured in three dimensions with calipers.
Tumor-bearing mice were randomized into a control group and seven groups receiving rhLF and/or cisplatin. RhLF (4 mg; 200 mg/Kg) was administered once daily by oral gavage for 8 days on days 5 through 12. Cisplatin was administered as a single dose of 5 mg/Kg given intraperitoneally either at the start of rhLF (day 5), in the middle (day 8) or at the end (day 12) of rhLF therapy. Animals were sacrificed on day 12 post-implantation and the residual tumor masses were measured and processed for later additional analyses.
A murine squamous carcinoma cell line (SCCVII) was injected into the floor of the mouth through the neck skin of immunocompetent C3H mice (Day 0) as described in Example 6. On Day 5 days after initial implantation, tumors were measured for the baseline, then treated with either cisplatin (Day 8, i.p., 5 mg/kg) alone or cisplatin plus three doses of oral rhLF (daily by gavage for 7-8 days on days 5 through 11/12). Animals were sacrificed on Day 11/12 and tumors measured.

[5] = system: murine squamous carcinoma cell line (SCCVII); experiment: SCCVII floor-of-mouth tumor growth, oral rhLF and/or radiotherapy; assay type: in vivo, C3H mice
Description: A murine squamous carcinoma cell line (SCCVII) was injected into the floor of mouth through the neck skin of immunocompetent C3H mice (Day 0). […] Tumors were measured in three dimensions with calipers.
Tumor-bearing mice were randomized into six groups receiving rhLF (200 mg/Kg) and/or radiotherapy as described below. RhLF (4 mg; 200 mg/kg) was administered by oral gavage once daily for 8 days on days 5 through 12. Radiotherapy was administered as single dose of 2 Gray given at the beginning (day 5) or at during (day 8) rhLF-therapy. Animals were sacrificed on day 14 post-treatment and the residual tumor masses were measured and processed for later additional analyses.

[6] = system: O12 human oropharyngeal squamous cell carcinoma tumor cells; experiment: Intratumoral rhLF in O12 tumors in nude mice; assay type: in vivo, athymic nude mice
Description: O12 human oropharyngeal squamous cell carcinoma tumor cells were injected to the right flank of athymic nude mice. Recombinant human lactoferrin and vehicle controls were dosed via intratumoral injection. Each animal was administered different concentrations of rhLF in 50 μL doses consisting of four separate injections of approximately 12.5 μL of the dose, at different directions and angles (approximately S/N/E/W) to ensure that the dose was distributed evenly throughout the tumor (fanning).
In this study, rhLF was administered directly into the tumor. Each animal was tracked daily for tumor growth by external caliper measurements of the protruding tumor.

[7] = system: circulating lymphocytes; experiment: Circulating lymphocytes following intratumoral rhLF in tumor-bearing mice; assay type: in vivo, C3H/HeJ mice
Description: Normal C3H/HeJ mice were implanted with one of two mouse tumors following the methodology described in Example 17. Tumors used were SCCVII and RIF mouse tumor cell lines. Following establishment of the tumors in the mice, tumors were injected intratumorally daily for 4 days with 250 or 500 μg rhLF per dose or with vehicle control. Twenty four hours following the last intratumoral injection, animals were sacrificed and the blood examined for lymphocyte populations. The number of circulating lymphocytes were increased by 34% to 56% relative to the placebo treated control animals (Table 14).

[8] = blood, 24 h after 4 daily intratumoral doses of 250 or 500 μg, SCCVII or RIF tumors

B1: rhLF: recombinant human lactoferrin, a single chain metal binding glycoprotein (protein, UniProt P02788 20-710, looked up)
Lactotransferrin: GRRRSVQWCAVSQPEATKCFQWQRNMRKVRGPPVSCIKRDSPIQCIQAIAENRADAVTLDGGFIYEAGLAPYKLRPVAAEVYGTERQPRTHYYAVAVVKKGGSFQLNELQGLKSCHTGLRRTAGWNVPIGTLRPFLNWTGPPEPIEAAVARFFSASCVPGADKGQFPNLCRLCAGTGENKCAFSSQEPYFSYSGAFKCLRDGAGDVAFIRESTVFEDLSDEAERDEYELLCPDNTRKPVDKFKDCHLARVPSHAVVARSVNGKEDAIWNLLRQAQEKFGKDKSPKFQLFGSPSGQKDLLFKDSAIGFSRVPPRIDSGLYLGSGYFTAIQNLRKSEEEVAARRARVVWCAVGEQELRKCNQWSGLSEGSVTCSSASTTEDCIALVLKGEADAMSLDGGYVYTAGKCGLVPVLAENYKSQQSSDPDPNCVDRPVEGYLAVAVVRRSDTSLTWNSVKGKKSCHTAVDRTAGWNIPMGLLFNQTGSCKFDEYFSQSCAPGSDPRSNLCALCIGDEQGENKCVPNSNERYYGYTGAFRCLAENAGDVAFVKDVTVLQNTDGNNNEAWAKDLKLADFALLCLDGKRKPVTEARSCHLAMAPNHAVVSRMDKVERLKQVLLHQQAKFGRNGSDCPDKFCLFQSETKNLLFNDNTECLARLHGKTTYEKYLGPQYVAGITNLKKCSTSPLLEACEFLRK
Inhibition Relative to Placebo (tumor growth) ([1]; Intratumoral, 0.05 μg to 125 μg per dose twice a day for eight days, N = 49, Day 19): 28%
Inhibition Relative to Placebo (tumor growth) ([1]; Intratumoral, 0.05 μg to 125 μg per dose twice a day for eight days, N = 49, Day 28): 46%
Inhibition Relative to Placebo (tumor growth) ([1]; Intravenous, 125 μg/dose twice a day for five days, N = 7, Day 19): 55%
Inhibition Relative to Placebo (tumor growth) ([1]; Intravenous, 125 μg/dose twice a day for five days, N = 7, Day 28): 65%
Inhibition Relative to Placebo (tumor growth) ([1]; Oral, 20 mg/dose twice a day for eight days, N = 7, Day 19): 76%
Inhibition Relative to Placebo (tumor growth) ([1]; Oral, 20 mg/dose twice a day for eight days, N = 7, Day 28): 80%
reduced rates of tumor growth relative to the control ([1]; across intratumoral, intravenous and oral routes): 46% to 80
relative increase of NK activity over placebo-treated animals ([2]; 30:1 E:T ratio): 243%
% Cytotoxicity Increased over ctrl ([2]; E:T ratio 3.7:1, versus placebo group): 0%
% Cytotoxicity Increased over ctrl ([2]; E:T ratio 7.5:1, versus placebo group): 0%
% Cytotoxicity Increased over ctrl ([2]; E:T ratio 15:1, versus placebo group): 1.3%
% Cytotoxicity Increased over ctrl ([2]; E:T ratio 30:1, versus placebo group): 7** %
% Cytotoxicity Final (NK activity) ([2]; E:T ratio 3.7:1): 0%
% Cytotoxicity Final (NK activity) ([2]; E:T ratio 7.5:1): 0.44%
% Cytotoxicity Final (NK activity) ([2]; E:T ratio 15:1): 4.12%
% Cytotoxicity Final (NK activity) ([2]; E:T ratio 30:1, 300 mg/kg/day): 10% and 9.81%
GM-CSF Increase over Placebo [3]: 19.4% (p < 0.01)
GM-CSF level, Mean (SEM) ([3]; 5 animals per group): 7.74 (0.19) pg
TGI (%) Relative to Placebo [4]: 33%
increase in TGI over monotherapy with radiation ([5]; both rhLF and radiation): 15%
increase in TGI over monotherapy with rhLF ([5]; both rhLF and radiation): 28%
Inhibition Relative to Placebo ([5]; rhLF 200 mg/kg oral days 5-12 plus 2 Gray on day 5): 68%
Inhibition Relative to Placebo ([5]; rhLF 200 mg/kg oral days 5-12 plus 2 Gray on day 8): 66%
Inhibition Relative to Placebo ([5]; rhLF 200 mg/kg oral days 5-12 plus 2 Gray, both radiation schedules pooled): 67%
Inhibition Relative to Placebo ([5]; rhLF 200 mg/kg oral once daily days 5-12, no radiation): 54%
reduction of rates of tumor growth versus pooled placebo ([6]; Group A, single intratumoral dose (100-500 μg), day 11 after the administration): 50%
reduction of rates of tumor growth versus pooled control group ([6]; Group C, intratumoral twice daily for 8 days (25-500 μg per dose)): 56%
increase in number of circulating lymphocytes relative to placebo ([7]; across CD3+, CD4+, CD8+ populations): 34% to 56
Number of Cells CD3+ [7, 8]: 3291
Number of Cells CD4+ [7, 8]: 2621
Number of Cells CD8+ [7, 8]: 1054
Increase with rhLF, CD3+ cells ([7]; relative to placebo): 56%
Increase with rhLF, CD4+ cells ([7]; relative to placebo): 46%
Increase with rhLF, CD8+ cells ([7]; relative to placebo): 34%
